Measured values: PMC7211019, “Par complex cluster formation mediated by phase separation” (Nature Communications, 2020)
Ends that are not written are not given here.

B1: FITC-labeled Par6β PBM peptide (peptide)
peptide: LEEDGTIITL
modifications: also: FITC label, position not given here
notes: source: synthetic peptide (Phtdpeptides)
B2: Par3 PDZ3 G600,602 A (domain or fragment, rat)
chain: GTREFLTFEVPLNDSGSAALAVSVKGNRSKENHADLGIFVKSIINGGAASKDGRLRVNDQLIAVNGESLLGKANQEAMETLRRSMSTEGNKRGMIQLIVARRIS
notes: Par3, rat, third PDZ domain with G600A and G602A; source: E. coli BL21 (DE3) or Rosetta, purified (Ni2+-NTA, SEC)

How the values were obtained:
Par3 PDZ3 = target: T1, Par3 PDZ3 (rat, UniProt Q9Z340 582-685); test: fluorescence polarisation; FITC-labeled peptide (~1 μM) titrated with Par3 PDZ domains, 25 °C, buffer A (50 mM Tris pH 8.0, 100 mM NaCl, 1 mM EDTA, 1 mM DTT); conditions: both partners purified
T1 construct: Par3, rat, third PDZ domain; Cloned into pGEX-6P-1 or a modified pET32a vector; also called rat Par3 PDZ3; source: E. coli BL21 (DE3) or Rosetta, purified (Ni2+-NTA, SEC)

[1] = target: B1; test: as above; conditions: both partners purified

T1 sequence (Q9Z340 582-685): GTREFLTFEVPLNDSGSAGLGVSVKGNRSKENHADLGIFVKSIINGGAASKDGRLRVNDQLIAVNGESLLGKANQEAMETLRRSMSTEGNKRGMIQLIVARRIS

| Binder | Kd (Par3 PDZ3) [nM] | fold weakening against wild-type Par3 PDZ3 [1] [fold] |
| --- | --- | --- |
| B1 | ~1000 | – |
| B2 | – | ~20 |
